# From patent US20030216563
# B1: Cds1 (protein)
# chain: MEEPEEATQATQEAPLHVSQNIAKQVVNNENVFMKLVMTRMLDGKTEVIPLTTDVHNGFWRFGRHKSCEVVLNGPRVSNFHFEIYQGHRNDSDESENVVFLHDHSSNGTFLNFERLAKNSRTILSNGDEIRIGLGVPKDEISFLCQVPVKHSRDSQKNMIKSENSHYEIIRTLGSGTFAVVKLAVEVNSGKWYAIKIINKRKILLTSSEKRATEMFQREIDILKSLHHPGVVQCHEIFENDDELFIVMEYVEGGDLMDFLIANGSIDEQDCKPLLKQLLETLLHLHKQGVTHRDIKPENILITNDFHLKISDFGLAKVIHGTGTFLETFCGTMGYLAPEVLKSKNVNLDGGYDDKVDIWSLGCVLYVMLTASIPFASSSQAKCIELISKGAYPIEPLLENEISEEGIDLINRMLEINPEKRISESEALQHPWFYTVSTHEHRTPPSSSEHEATEQLNSSS
# Columns and labels:
# [1] = target: GST:Weel^152
# [2] = target: GST:Weel^70
# Sequence of GST:Weel^70 (chain, as listed by the source): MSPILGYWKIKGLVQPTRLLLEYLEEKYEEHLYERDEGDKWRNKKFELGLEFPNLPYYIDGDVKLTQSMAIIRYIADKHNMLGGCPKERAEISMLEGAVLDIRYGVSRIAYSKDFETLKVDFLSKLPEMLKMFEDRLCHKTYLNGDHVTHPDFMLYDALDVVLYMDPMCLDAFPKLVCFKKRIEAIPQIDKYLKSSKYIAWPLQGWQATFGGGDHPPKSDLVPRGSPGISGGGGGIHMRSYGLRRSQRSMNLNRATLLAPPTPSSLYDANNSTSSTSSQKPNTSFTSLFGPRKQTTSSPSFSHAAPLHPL
# Sequence of GST:Weel^152 (chain, as listed by the source): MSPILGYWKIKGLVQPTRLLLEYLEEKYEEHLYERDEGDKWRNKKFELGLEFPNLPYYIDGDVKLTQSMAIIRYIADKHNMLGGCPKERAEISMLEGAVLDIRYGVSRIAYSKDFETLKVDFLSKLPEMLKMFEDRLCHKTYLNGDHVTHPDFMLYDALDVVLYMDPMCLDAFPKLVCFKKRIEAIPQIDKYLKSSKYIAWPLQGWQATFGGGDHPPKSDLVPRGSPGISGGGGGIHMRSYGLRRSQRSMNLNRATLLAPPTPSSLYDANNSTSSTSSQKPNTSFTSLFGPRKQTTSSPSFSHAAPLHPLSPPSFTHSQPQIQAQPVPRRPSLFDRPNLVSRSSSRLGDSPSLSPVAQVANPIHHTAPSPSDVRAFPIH
protein,measurement,setting,value
B1,phosphorylation by bead-associated kinase with [gamma-32P]ATP,[1],GST:Weel^152 is phosphorylated by this kinase and another that is active prior to HU treatment
same,"in vitro phosphorylation, two-dimensional tryptic phosphopeptide map",[2],"Cds1 purified from fission yeast phosphorylated GST:Weel^70 in vitro, producing a two-dimensional tryptic phosphopeptide map that was identical to a map made from GST:Weel^70 phosphorylated by its associated kinase"
